In publication PMC4627819, “Bacillus subtilis Bactofilins Are Essential for Flagellar Hook- and Filament Assembly and Dynamically Localize into Structures of Less than 100 nm Diameter underneath the Cell Membrane” (PLoS ONE, 2015):

B1: BacE carrying a hexa-histidine tag (his6-yhbE) (natural protein, Bacillus subtilis, UniProt P39132 1-237, looked up)
chain: MDVVEKLVINGSGSSKGGTFQSVEINGSGTVAGDVECDTFSFNGNGKADGSVKAKAVTISGSGKIHGDVEAESIRMNGTGFIQGEVSAKQLKIAGSSTFGGTVKADGIDISGKAVMEADCETETFQSEGKCKISGLLNADQVIIKLSAGESYAREIGCRHLQVTCRKGMLTLLRLMPQPVLTAELIEGDVIELTNTKAKTVRGNKVIIGPDCQIETVEYSGDYTCDPSASVETSTKL
notes: Bactofilin BacE, product of yhbE, Bacillus subtilis; full-length yhbE cloned into pET16b or pET24d; source: E. coli BL21 (DE3); also coexpressed with untagged BacF, in cell extract
B2: BacF carrying a hexa-histidine tag (6-His-BacF) (natural protein, Bacillus subtilis, UniProt P39133 1-235, looked up)
chain: METTKLGNLKLYGAGHAAGGAYHNVSIKGEGIVGEGLSAVGCRIYGTGLFLGKAETERLRVLGESECKGDLTAGKINIYGTMKVSGSLQFDRFNLKGQTEIGGNMTGESCDVKGKLSVIGDCETEMFHVTGCVDVSGLLNSGEIKLGLSHDISHVQEIGGTTITVKRRASFFSRKKGKLIADVIEGDRVYLENTEAAVVRGKEVIIGPGCSIGTIEYEYKCECDPHSQIKEKTKL
notes: Bactofilin BacF, product of yhbF, Bacillus subtilis; full-length yhbF cloned into pET16b or pET24d; also called YhbF; his6-yhbF; source: E. coli BL21 (DE3); also coexpressed with untagged BacE, in cell extract

Target: the molecule itself
Test: SEC; analytical gel filtration of the purified protein on its own; S200/26-60 column, 20 mM HEPES-Na pH 7.5, 250 mM NaCl, 10 mM KCl, 10 mM MgCl2; fractions analysed by SDS-PAGE

Row | Protein | binding result
1 | B1 | binds
2 | B2 | binds
